B1: C40G1 (antibody, V domains shown)
VH: QLQLQESGPGLVKPSETLSLTCTVSGGSISSSFYYCGWIRQPPGKGLEWIGSIYYRGSTYYNPSLKSRVTISVDTSKNQFSLKLSSVTAADTAVYYCARRVTMVRGVKGDYFDYWGQGTLVTVSS
VL: DIQMTQSPSSLSASVGDRVTITCRASQGISSWLAWYQQKPEKVPKSLIYAASSLQSGVPSRFSGSGSGTDFTLTISSLQPEDFATYYCQQYNYYPLTFGGGTKVEIKR
B2: N547 (antibody, V domains shown)
VH: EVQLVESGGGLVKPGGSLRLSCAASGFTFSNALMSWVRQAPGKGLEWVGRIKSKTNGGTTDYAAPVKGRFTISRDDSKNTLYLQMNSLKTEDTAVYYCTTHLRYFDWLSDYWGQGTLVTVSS
VL: QSVLTQPPSMSAAPGQKVTISCSGSSSNIGNNYISWYQQLPGTAPKVLIYDNNKRPSGIPDRFSGSKSGTSATLGITGLQTGDEADYYCGSWDSSLSAGVFGTGTKVTVLG
B3: L66 (antibody, V domains shown)
VH: EVQLVESGGGVVRPGGSLRLSCAASGFTFDDYGMSWVRQAPGKGLEWVSGINWNGGSTGYADSVKGRFTISRDNAKNSLYLQMNSLRAEDTALYYCARDRVTMVRGVIMDYYGMDVWGQGTTVTVSS
VL: QTVVTQEPSLTVSPRGTVTLTCSSSTGAVTSGYYPGWFQLKPGQAPMSLIYSARKKHSWTPARFSGSLLGGKAALTLSGVQPEDEAEYYCLLYYGGAYVFGTGTKVTVLG
B4: C40G4 (antibody, V domains shown)
VH: B1 VH
VL: B1 VL

Molecular target: T1, M2 expressed on MDCK cells infected with influenza A/PR/8/34 (influenza A virus A/PR/8/34, UniProt P06821 1-97)
T1 construct: whole, on cells
T1 sequence (P06821 whole entry): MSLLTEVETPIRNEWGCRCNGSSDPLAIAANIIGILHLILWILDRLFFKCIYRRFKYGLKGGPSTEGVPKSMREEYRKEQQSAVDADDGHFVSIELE
Test: cell ELISA, A/PR/8/34-infected MDCK

Binder | fold greater reactivity than F1 and F2
B1 | > 100 fold
B2 | > 100 fold
B3 | > 100 fold

Molecular target: T1, M2 expressed on MDCK cells infected …
Test: cell ELISA, A/PR/8/34-infected MDCK, Ab 1 µg/ml, no peptide

Binder | OD450
B1 | 0.799 OD450
B2 | 0.504 OD450
B3 | 0.931 OD450

Molecular target: T1, M2 expressed on MDCK cells infected …
Test: cell ELISA, A/PR/8/34-infected MDCK, Ab 1 µg/ml, competitor M2 peptide 20 µg/ml

Binder | OD450 with competitor
B1 | 0.195 OD450
B2 | 0.062 OD450
B3 | 0.113 OD450

Molecular target: T1, M2 expressed on MDCK cells infected …
Test: cell ELISA on infected MDCK cells

Binder | EC50
B1 | 0.183 µg/mL
B4 | 0.301 µg/mL
B2 | 0.104 µg/mL
B3 | 0.117 µg/mL
